Read-outs that look alike come from different tables or passages of the source. One block for each binder: values may come before it.
How the values were obtained:
[1] = biological target: T1, human CD112R on Jurkat CD112R effector cells (human, UniProt Q6DKI7 1-326); assay: cell-based or functional assay
T1 sequence (looked up): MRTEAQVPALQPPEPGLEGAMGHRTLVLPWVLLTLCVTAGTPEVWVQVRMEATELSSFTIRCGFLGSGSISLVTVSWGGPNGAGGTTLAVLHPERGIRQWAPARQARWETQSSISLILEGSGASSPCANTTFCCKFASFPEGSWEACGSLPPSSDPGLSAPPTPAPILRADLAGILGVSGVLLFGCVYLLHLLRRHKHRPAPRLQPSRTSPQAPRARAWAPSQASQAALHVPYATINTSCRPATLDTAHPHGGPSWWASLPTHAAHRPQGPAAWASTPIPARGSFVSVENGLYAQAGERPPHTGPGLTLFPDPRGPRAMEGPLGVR

[2] = biological target: T2, hCD112R mFC recombinant protein (human; murine, UniProt Q6DKI7 41-160); assay: FACS competition, hCD112R mFc on CHO CD112 cells
T2 construct: range 41-160; expressed in 293E cells; also called hCD112R ECD mFC; hCD112R-ECD-mFC; not shown: murine IgG2a Fc domain (MX2-mFc vector)
T2 sequence (looked up): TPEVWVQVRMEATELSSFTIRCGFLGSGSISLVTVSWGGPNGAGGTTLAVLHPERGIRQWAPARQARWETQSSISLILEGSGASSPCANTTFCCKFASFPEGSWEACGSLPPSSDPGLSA
Method: Unbound antibodies were then washed with a staining buffer and the cells were incubated with 1% (v/v) goat anti-mouse IgG Fc fluorescent secondary antibodies (Jackson ImmunoResearch) prepared in a staining buffer at 4° C. for 30 min in the dark. Finally, the cells were collected by using a flow cytometer, and the fluorescent antibodies bound to the cell surface were detected. Raw data were analyzed by using FlowJo to obtain MFI values, and a four-parameter curve fitting was performed by using GraphPad Prism software to obtain IC₅₀ values.

[3] = biological target: T2, hCD112R mFC recombinant protein; assay: Biacore T200, antibody captured, hCD112R mFc injected
Method: Biacore T200 was used to assay the binding affinity of the anti-CD112R hybridoma antibodies for the recombinant hCD112R mFc protein. […] antibody fragments (Jackson ImmunoResearch) were coupled to the surface of a CM5 chip, and the anti-CD112R hybridoma antibodies were each captured by using the chip, after which recombinant hCD112R mFc proteins at different concentrations were injected into the CM5 chip.

[4] = biological target: T1, human CD112R on Jurkat CD112R effector …; assay: cell-based or functional assay; remark: listed apart in the source
[5] = biological target: T2, hCD112R mFC recombinant protein; assay: ELISA, coated hCD112R-ECD-mFC
In short: (§1)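 Plates coated with hCD112R-ECD-mFC at 1.5 μg/mL; humanized antibodies titrated from 1 μg/mL, 2.5-fold, 12 points. Bound antibody detected with HRP anti-human IgG Fc and TMB, read at 420/620 nm; EC50 from 4PL fit, COM701 and anti-KLH hu-IgG4 as controls.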

[6] = biological target: T3, recombinant cynomolgus monkey CD112R antigen (cynomolgus monkey, UniProt A0A2K5WVV8 1-322); assay: ELISA, coated cynomolgus monkey CD112R
T3 construct: bought
T3 sequence: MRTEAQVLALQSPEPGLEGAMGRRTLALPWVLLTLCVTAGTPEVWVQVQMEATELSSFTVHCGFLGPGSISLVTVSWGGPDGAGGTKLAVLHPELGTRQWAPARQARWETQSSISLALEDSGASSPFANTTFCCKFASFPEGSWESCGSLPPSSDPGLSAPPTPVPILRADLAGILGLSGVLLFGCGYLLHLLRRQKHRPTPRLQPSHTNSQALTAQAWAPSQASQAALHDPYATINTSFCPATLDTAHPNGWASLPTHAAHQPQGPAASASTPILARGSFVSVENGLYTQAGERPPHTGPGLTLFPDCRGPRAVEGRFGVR
Method: (§2) Plates were coated with a recombinant cynomolgus monkey CD112R antigen (purchased from Acrobiosystems, Cat No. PVG-C5259) and a mouse CD112R antigen (purchased from Acrobiosystems, Cat No. PVG-M5257) at fixed concentrations, respectively, and the humanized anti-CD112R antibodies diluted in a gradient (initial concentration: 1 μg/mL, 2.5-fold gradient dilution, 12 concentration gradients in total) were added to bind to the antigens, HRP-conjugated mouse anti-human IgG4 Fc (Southern Biotech. 9200-05) was subjected to a 5000-fold dilution and used as detection antibody for detection. The color development was performed with 0.1 mg/mL TMB, and finally stopped with 2 M hydrochloric acid. The plates were read at 420 nm/620 nm. EC₅₀ was obtained by fitting with a four-parameter logistic regression (4PL) model.

[7] = biological target: T2, hCD112R mFC recombinant protein; assay: FACS competition, hCD112R mFc on CHO CD112 cells; remark: listed apart in the source
In short: (§3)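 CHO cells overexpressing human CD112 were co-incubated 30 min at 4 °C with hCD112R mFc (5 μg/mL) and humanized anti-CD112R antibodies (from 100 μg/mL, 3-fold, 10 points). Bound fusion protein detected with anti-mouse IgG Fc secondary by flow cytometry; IC50 from four-parameter fit of MFI. COM701 served as positive control, anti-KLH hu-IgG4 as negative.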

[8] = biological target: T2, hCD112R mFC recombinant protein; assay: ELISA, coated hCD112R-ECD-mFC; EC50 COM701/EC50 antibody
In short: as §1

[9] = biological target: T2, hCD112R mFC recombinant protein; assay: FACS competition, hCD112R mFc on CHO CD112 cells; IC50 COM701/IC50 antibody
In short: as §3

mouse CD112R antigen [10] = biological target: T4, mouse CD112R antigen (mouse); assay: ELISA on coated mouse CD112R, OD 450 nm, ambiguous fit of a nearly flat curve; unit from the axis
T4 construct: bought
Method: as §2, with “The plates were read at 420 nm/620 nm.” left out

mouse CD112R antigen [11] = biological target: T4, mouse CD112R antigen; assay: ELISA on coated mouse CD112R, OD 450 nm, fit of a nearly flat curve; unit from the axis
Method: as §2, with “The plates were read at 420 nm/620 nm.” left out

[12] = biological target: T3, recombinant cynomolgus monkey CD112R …; assay: ELISA on coated recombinant cynomolgus monkey CD112R, OD 450 nm, 4PL fit; unit from the axis

B1: 4E5.1 (antibody, V domains shown)
VH: EVMLVESGGGLVKPGGSLKLSCAASGFTFSNYIMSWVRQTPDMRLEWVATISSGGSSTYYVDRVKGGFPFSRDSVKYILYVHTSSLRSADTAIYYCAKHEDWDPLYYYSMDYWGQGTSVTVSS
VL: QIVLTQSPTVMSASPGDKVTMTCSASSSVSYMYWFQQKPGSSPRLLIYDTSHLAFGVPSRFSGSRSGTSYSLTISRMEAEDTATYYCQQWTTYPLTFGAGTKLELK
notes: murine hybridoma antibody
EC50, CD112R/CD112 NFAT-luciferase reporter [1]: 0.0552 µg/mL
IC50 [2]: 0.111 µg/mL
Kd [3]: 0.00926 nM

B2: Hu16 (antibody, human IgG4 S228P, kappa)
heavy: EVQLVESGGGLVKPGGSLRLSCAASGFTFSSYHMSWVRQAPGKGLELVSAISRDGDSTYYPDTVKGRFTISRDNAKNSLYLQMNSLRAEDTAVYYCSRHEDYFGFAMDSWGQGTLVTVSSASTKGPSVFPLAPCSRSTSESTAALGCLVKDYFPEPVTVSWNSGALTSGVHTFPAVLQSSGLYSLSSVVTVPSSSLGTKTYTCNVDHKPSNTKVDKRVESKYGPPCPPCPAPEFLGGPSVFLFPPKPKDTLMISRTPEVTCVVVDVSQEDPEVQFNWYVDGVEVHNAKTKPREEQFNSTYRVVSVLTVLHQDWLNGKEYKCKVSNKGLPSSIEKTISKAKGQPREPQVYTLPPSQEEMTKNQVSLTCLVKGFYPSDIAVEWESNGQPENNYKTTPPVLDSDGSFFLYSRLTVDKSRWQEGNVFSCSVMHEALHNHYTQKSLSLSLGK
light: DIVMTQSPDSLAVSLGERATINCKASQSVSNDVAWYQQKPGQPPKLLIYYVSHRFTGVPDRFSGSGSGTDFTLTISSLQAEDVAVYFCHQAYRSPWTFGQGTKLEIKRTVAAPSVFIFPPSDEQLKSGTASVVCLLNNFYPREAKVQWKVDNALQSGNSQESVTEQDSKDSTYSLSSTLTLSKADYEKHKVYACEVTHQGLSSPVTKSFNRGEC
notes: humanized; 5C10VH1 + 6A10VL2
EC50, CD112R/CD112 reporter [4]: 0.0196 µg/mL
Relative activity (%), EC50 COM701/EC50 antibody [4]: 253%
EC50 [5]: 0.00426 µg/mL
EC50 [6]: 0.00292 µg/mL
IC50 [7]: 2.5 µg/mL
Relative activity (%) [8]: 126%
Relative activity (%) [9]: 143%
EC50 (mouse CD112R antigen [10]): ~683 µg/mL

B5: 2G10.1 (antibody, V domains shown)
VH: QVQLQQSGAELVKPGASVKLSCKASGYTFTSHYMYWLKQRPGQGLEWIGEINPSNGDTKFNEKFKSKATLTVDKSSSTAYMQLSSLTSEDSAVYYCTREKDAFSALDYWGQGTSVTDSS
VL: DIQMIQSPSSMFASLGDRVSLSCRASQGIRGHLDWYQQKPGGTIKLLIYSTSILNFGVPSRFSGSGSGSDYSLTISSLESEDFADYYCLQRNAYPLTFGAGTKLELK
notes: murine hybridoma antibody
EC50, CD112R/CD112 NFAT-luciferase reporter [1]: 0.0729 µg/mL
IC50 [2]: 0.261 µg/mL
Kd [3]: 0.0302 nM

The next lines start with the values.

EC50, CD112R/CD112 reporter [4]: 0.018 µg/mL
Relative activity (%), EC50 COM701/EC50 antibody [4]: 415%
EC50 [5]: 0.00568 µg/mL
EC50 [6]: 0.00309 µg/mL
IC50 [7]: 2.52 µg/mL
Relative activity (%) [8]: 161%
Relative activity (%) [9]: 95.5%
EC50 (mouse CD112R antigen [11]): 1870 µg/mL
B3: Hu52 (antibody, human IgG4 S228P, kappa)
heavy: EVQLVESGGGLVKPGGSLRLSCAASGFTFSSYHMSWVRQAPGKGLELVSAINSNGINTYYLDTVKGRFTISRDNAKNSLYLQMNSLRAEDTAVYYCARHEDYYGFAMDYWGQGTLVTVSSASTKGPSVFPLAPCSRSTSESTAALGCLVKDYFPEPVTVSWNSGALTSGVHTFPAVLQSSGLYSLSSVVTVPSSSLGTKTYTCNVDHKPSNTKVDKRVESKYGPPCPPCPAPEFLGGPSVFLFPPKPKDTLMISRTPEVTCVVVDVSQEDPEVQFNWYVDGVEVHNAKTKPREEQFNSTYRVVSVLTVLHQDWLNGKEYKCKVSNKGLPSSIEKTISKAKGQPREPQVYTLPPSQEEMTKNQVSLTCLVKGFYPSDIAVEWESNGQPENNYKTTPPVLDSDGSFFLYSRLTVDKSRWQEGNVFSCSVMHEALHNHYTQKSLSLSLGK
light: B2 light
notes: humanized; 7C2VH1 + 6A10VL2

EC50, CD112R/CD112 reporter [4]: 0.0188 µg/mL
Relative activity (%), EC50 COM701/EC50 antibody [4]: 312%
EC50 [5]: 0.00496 µg/mL
EC50 [6]: 0.00262 µg/mL
IC50 [7]: 3.17 µg/mL
Relative activity (%) [8]: 169%
Relative activity (%) [9]: 76%
EC50 (mouse CD112R antigen [10]): ~1970 µg/mL
B4: Hu59 (antibody, human IgG4 S228P, kappa)
heavy: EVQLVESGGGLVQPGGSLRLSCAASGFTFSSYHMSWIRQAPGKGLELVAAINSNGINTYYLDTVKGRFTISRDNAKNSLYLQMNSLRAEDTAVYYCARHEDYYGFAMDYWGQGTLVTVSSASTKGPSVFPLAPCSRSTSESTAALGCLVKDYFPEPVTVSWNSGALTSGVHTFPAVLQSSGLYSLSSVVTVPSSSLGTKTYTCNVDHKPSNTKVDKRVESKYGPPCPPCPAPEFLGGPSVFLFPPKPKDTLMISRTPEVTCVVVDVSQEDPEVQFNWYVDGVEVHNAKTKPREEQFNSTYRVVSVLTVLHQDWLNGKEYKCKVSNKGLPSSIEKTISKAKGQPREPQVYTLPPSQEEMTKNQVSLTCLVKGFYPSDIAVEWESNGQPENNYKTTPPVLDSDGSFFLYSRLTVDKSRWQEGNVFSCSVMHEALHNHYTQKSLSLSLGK
light: DIQMTQSPSSLSASVGDRVTITCKASQSVSNDVAWYQQKPGKAPKLLIYYVSNRFTGVPSRFSGSGSGTDFTLTISSLQPEDFATYFCQQAYRSPWTFGQGTKLEIKRTVAAPSVFIFPPSDEQLKSGTASVVCLLNNFYPREAKVQWKVDNALQSGNSQESVTEQDSKDSTYSLSSTLTLSKADYEKHKVYACEVTHQGLSSPVTKSFNRGEC
notes: humanized; 7C2VH2 + 7C2VL1

EC50 [12]: 0.00428 µg/mL
EC50 (mouse CD112R antigen [10]): ~1.06 µg/mL
B6: COM701 (antibody, V domains shown)
VH: QVQLVQSGAEVKKPGASVKVSCKASGYTFTDYNINWVRQAPGQGLEWMGYIYPYIGGSGYAQKFQGRVTMTRDTSTSTVYMELSSLRSEDTAVYYCAREDKTARNAMDYWGQGTLVTVSS
VL: DIQMTQSPSSLSASVGDRVTITCRVSENIYSNLAWYQQKPGKAPKLLIYEATNLAEGVPSRFSGSGSGTDFTLTISSLQPEDFATYYCQHFWGTPYTFGQGTKLEIK

Source: US20240309087A1 (SHANGHAI JUNSHI BIOSCIENCES, published 2024)
